The target of assay [1] is recombinant FIPV-UU4 S protein (ectodomain of the spike protein of serotype I feline infectious peritonitis virus strain UU4, fused with the trimerization domain of T4 fibritin) (feline infectious peritonitis virus, serotype I, strain UU4 | bacteriophage T4). In words: native gel or EMSA. For orientation: A gel shift assay detects complexes by their altered migration in electrophoresis.

Assay [2] shares this target. In words: cryo-EM structure.

The stoichiometry N is the number of molecules, sites or subunits per partner or assembly. Turning to “recombinant FIPV-UU4 S protein (ectodomain of the spike protein of serotype I feline infectious peritonitis virus strain UU4, fused with the trimerization domain of T4 fibritin) (natural protein)”, the stoichiometry N in assay [1] and in assay [2] was 3 throughout.

The values above are taken from paper PMC6983407.
